In the supplement of paper PMC9732359:
± gives the uncertainty stated by the source.

Assay: protein stability index of a GFP-peptide fusion (yeast GPS) (PSI 1-4); higher = more stable; sorted into four equal gates, so the index is relative within each strain
Procedure, shortened: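 The protein stability index combines read frequencies across sorting gates, each weighted by its gate number and then summed. To obtain those frequencies, a pooled yeast library of GFP fusions to tiled 17-residue yeast protein peptides, on a plasmid also expressing Cherry, was grown to mid-log phase in leucine-free medium. The cells were sorted into four equal gates by GFP/Cherry ratio before plasmid amplification by PCR and Illumina sequencing.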

| Sequence | protein stability index (doa10∆) | protein stability index (pdr5∆) | protein stability index (san1∆) | protein stability index (ubr1∆) |
| --- | --- | --- | --- | --- |
| GRKYTTLGKLSTSVGWK [RPL16B] | 2.79 ± 0.1 | 1.94 ± 0.1 | 2.77 ± 0.11 | 2.64 ± 0.067 |
| ANAMNRMAKLCARFLGN [RPO31] | 3.12 ± 0.21 |  |  |  |
| AIHIFESYYNWKYNNFL [YML103C/NUP188] | 2.04 ± 0.13 | 1.6 ± 0.1 | 1.94 ± 0.24 | 2.62 ± 0.17 |
| NLQREIDQAHVSEITKL [RPN14] | 2.61 ± 0.044 | 2.81 ± 0.058 | 2.75 ± 0.054 | 2.69 ± 0.05 |
| LQESINHVMYTEVSRKS [ECM29] | 2.47 ± 0.054 | 2.74 ± 0.062 | 2.47 ± 0.077 | 2.51 ± 0.035 |
| ARKSKEEREAAASKVKL [RPC53] | 3.16 ± 0.22 |  |  |  |
| FLDSVHKQGSSYVAVLG [POP7] | 2.6 ± 0.045 | 2.17 ± 0.037 | 2.38 ± 0.057 | 2.51 ± 0.033 |
| NAVISHANAAAVYFADT [SIN4] | 2.03 ± 0.049 | 2.29 ± 0.047 | 2.06 ± 0.051 | 2.3 ± 0.034 |
| DQEIVIQQLHSVLNPFL [ISW2] | 2.3 ± 0.042 | 2.09 ± 0.042 | 1.98 ± 0.056 | 2.26 ± 0.032 |
| VDPASAPNHSPEIDNLD [RRP6] | 3.1 ± 0.11 | 2.98 ± 0.074 | 3.25 ± 0.072 | 3.16 ± 0.059 |
| AISLGLLKGSIDQVNEL [RPN9] | 3.36 ± 0.098 | 3.08 ± 0.066 | 3.16 ± 0.095 | 3.21 ± 0.039 |
| MSGGKGGKAGSAAKASQ [HTA1] | 3.18 ± 0.1 | 3.13 ± 0.1 | 2.83 ± 0.1 | 3.24 ± 0.07 |
| VIRDSVTYTEHAKRKTV [HHF1] | 1.8 ± 0.081 | 1.4 ± 0.074 | 1.44 ± 0.12 | 2.03 ± 0.051 |
| LATPVQFELLSRRWRQR [BRR2] | 1.79 ± 0.072 | 1.87 ± 0.054 | 1.81 ± 0.072 | 2.17 ± 0.051 |
| HHYRPDMTTEEGLDLLK [PRE1] | 3.32 ± 0.19 | 3.41 ± 0.17 |  | 3.53 ± 0.093 |
| NDNNSPHTPVTRKGYIP [YLR018C/POM34] | 3.1 ± 0.081 | 2.88 ± 0.073 | 2.85 ± 0.078 | 3.01 ± 0.055 |
| DEFPSELSDSDRQIINE [SIR4] | 3.53 ± 0.27 | 3.24 ± 0.16 |  | 2.89 ± 0.15 |
| KGPAIDELSSKELVECH [NNF1] | 3.04 ± 0.055 | 3.13 ± 0.068 | 2.78 ± 0.077 | 2.82 ± 0.047 |
| NECQRLQNIVMDCTKEE [YIL149C/MLP2] | 2.61 ± 0.093 | 3.47 ± 0.11 | 3.66 ± 0.2 | 3.4 ± 0.12 |
| LAPTQLSAEYLVILKPD [SIN4] | 2.31 ± 0.11 | 2.74 ± 0.13 | 2.38 ± 0.12 | 2.38 ± 0.074 |
| DTIATSATPNAAAFSQQ [GAL11] | 2.6 ± 0.056 | 2.92 ± 0.064 | 2.76 ± 0.055 | 2.82 ± 0.039 |
| LTHSTPKNFGIGQAVQP [RPL8A] | 3.06 ± 0.06 | 3.01 ± 0.045 | 3.02 ± 0.033 | 3.18 ± 0.036 |
| MGGIREKKAEYFAKLRE [RPP0] | 3.48 ± 0.081 | 3.37 ± 0.082 | 3.13 ± 0.061 | 3.55 ± 0.095 |
| QMSLEANVVDITNDWEQ [YJR042W/NUP85] | 2.65 ± 0.077 | 2.77 ± 0.064 | 2.92 ± 0.058 | 2.87 ± 0.058 |
| FLDSMAQKYASIVGVDL [FAS2] | 1.81 ± 0.051 | 2.29 ± 0.048 | 1.96 ± 0.057 | 2.61 ± 0.035 |
| KEDKSEAIDGNGEIKGE [SNF2] | 2.23 ± 0.049 | 2.81 ± 0.083 | 2.17 ± 0.073 | 2.48 ± 0.084 |
| LITSEMFDAFVSFYFED [SIN4] | 1.94 ± 0.1 | 2.59 ± 0.061 | 1.87 ± 0.093 | 2.93 ± 0.081 |

| Sequence | protein stability index (doa10∆) | protein stability index (pdr5∆) | protein stability index (san1∆) | protein stability index (ubr1∆) |
| --- | --- | --- | --- | --- |
| RNFSLAIIDKNTGLTFK [PRE4] | 3.14 ± 0.068 | 3.07 ± 0.071 | 3.14 ± 0.043 | 3.18 ± 0.058 |
| VRLPTKVLKISTRKTPN [RPS20] | 1.83 ± 0.087 | 2.22 ± 0.089 | 1.7 ± 0.15 | 2.42 ± 0.084 |
| RNFKKANLVNKESDLLE [BRN1] | 1.7 ± 0.099 | 1.58 ± 0.051 | 1.64 ± 0.11 | 1.43 ± 0.053 |
| EGIEKMGVRTFSQKEMA [FAS2] | 2.96 ± 0.16 | 2.73 ± 0.24 | 2.88 ± 0.071 | 2.89 ± 0.061 |
| KLKQQSSTDIPSYTHVL [RRI1] | 2.29 ± 0.034 | 2.48 ± 0.04 | 2.52 ± 0.045 | 2.49 ± 0.035 |
| VEAIRRSNQYQRGKMHG [NUT2] | 2.85 ± 0.085 | 2.64 ± 0.076 | 2.83 ± 0.11 | 2.6 ± 0.099 |
| SLRSNVVVAETSPEKKD [YAR002W/NUP60] | 2.23 ± 0.05 | 2.63 ± 0.063 | 2.21 ± 0.069 | 2.4 ± 0.061 |
| WRLLFIDKFIMVVQKYK [GRR1] | 2.07 ± 0.054 | 1.79 ± 0.052 | 1.66 ± 0.083 | 2.38 ± 0.043 |
| TRSAKKMVIAELLPHYP [YJR042W/NUP85] | 2.83 ± 0.089 | 2.81 ± 0.087 | 2.89 ± 0.052 | 3 ± 0.074 |
| PQFNSPYDSNNSNTNLN [SWI1] | 2.97 ± 0.054 | 3.03 ± 0.047 | 2.76 ± 0.052 | 2.9 ± 0.043 |
| SKLEGTINKAVQVKVLG [ESC2] | 1.57 ± 0.11 | 1.93 ± 0.12 | 1.66 ± 0.21 | 1.75 ± 0.086 |
| PSNFEINAEEIVDFTLP [PRP8] | 2.91 ± 0.083 | 3.18 ± 0.082 | 3 ± 0.064 | 3.02 ± 0.049 |
| LDDNSTSLEKQINSIKK [YJL041W/NSP1] | 2.74 ± 0.078 | 3.01 ± 0.058 | 2.98 ± 0.038 | 2.95 ± 0.045 |
| SSRTKFWSFLDSLIFKD [YJL039C/NUP192] | 2.78 ± 0.18 | 2.87 ± 0.17 |  | 2.72 ± 0.12 |
| YSKSFEQFKMVSMITDH [POP1] | 2.3 ± 0.12 | 1.97 ± 0.23 | 1.62 ± 0.26 | 1.95 ± 0.15 |
| LATGPNLTSEIEDLRAD [YOR098C/NUP1] | 3.42 ± 0.11 | 3.25 ± 0.11 | 3.12 ± 0.06 | 3.25 ± 0.082 |
| LEFARITPMNDDQCMLI [SIN4] | 2.63 ± 0.074 | 2.82 ± 0.089 | 2.25 ± 0.051 | 3.31 ± 0.067 |
| PPQAGDRSLADDYDYVM [RPB8] | 3.23 ± 0.11 | 2.99 ± 0.11 | 3.33 ± 0.084 | 3 ± 0.09 |
| EITQQEKGLNELSIRDV [SMC4] | 1.75 ± 0.11 | 2.64 ± 0.076 | 2.74 ± 0.089 | 1.85 ± 0.087 |
| CRSCPYEFPIEGIEIYD [RPC11] | 1.73 ± 0.078 | 2.32 ± 0.11 | 1.85 ± 0.11 | 2.08 ± 0.093 |
| FDKIIKIREDHINKIPS [SRB8] | 2.67 ± 0.12 | 2.95 ± 0.066 | 2.96 ± 0.06 | 2.81 ± 0.062 |
| MVGLASGNDSMAGKVLI [BRR2] | 3.24 ± 0.1 | 3.4 ± 0.092 | 3.21 ± 0.091 | 3.47 ± 0.058 |
| DAIIPFAAIPEQGIELE [FAS2] | 3.12 ± 0.15 | 2.84 ± 0.2 | 3.42 ± 0.084 | 3.41 ± 0.1 |
| QSRLFINELVLENFKSY [SMC4] | 1.75 ± 0.053 | 2.34 ± 0.049 | 1.94 ± 0.078 | 2.27 ± 0.042 |
| EIMYTGVSISVSFNSKQ [SMC3] | 1.61 ± 0.089 | 1.99 ± 0.07 | 2.83 ± 0.087 | 2.29 ± 0.1 |
| LTYDKDLTNNPQDDDSQ [MTR3] | 2.8 ± 0.073 | 3.21 ± 0.099 | 3 ± 0.081 | 3.1 ± 0.075 |
| CMEVASAFMKFSKAIEW [BRR2] | 2.12 ± 0.064 | 2.21 ± 0.047 | 2.42 ± 0.068 | 1.98 ± 0.043 |
